From the supplement of paper PMC10126150
± gives the standard deviation of the averaged measurements.

Tested on: ATP
Test: switch fluorescence ratio, 500 uM ATP over buffer (Cy3 cluster intensity, sum of 5 cycles each) (fold (ratio)); higher = stronger signal-on switching upon ATP binding; sequences stand for … in TCGTCGGCAGCGTCAGATGTGTATAAGAGACAGTTTTTTTTTTTTTTTTTTTTTTTTT…TC
Settings: aptamer strand: ATP DNA aptamer (quencher-CACCTGGGGGAGTATTGCGGAGGAAGG + anchor), 100 nM annealed; ATP concentration: 500 uM
Outline: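 Values give the fluorescence ratio for each switch-domain sequence, averaged from per-cluster ratios of summed target-cycle to summed buffer-cycle Cy3 intensity. The Cy3-labelled switching-strand clusters sat on a modified Illumina MiSeq flow-cell, were annealed to 100 nM quencher-labelled ATP aptamer, and were imaged in selection buffer, then after 15 min with 500 uM ATP at 22 °C. Five cycles ran with NaOH stripping and re-annealing between them, and clusters outside 100-1000 RFU were excluded.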
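Further: ATP exposure 15 min at 22 °C before imaging.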

| Sequence | switch fluorescence ratio |
| --- | --- |
| AGGGAAGGAT | 1.01 ± 0.047 |
| AGGGAAGGGG | 1.1 ± 0.17 |
| AGGGAATGTG | 0.987 ± 0.034 |
| AGGGACAGAC | 1.17 ± 0.054 |
| AGGGACGTAG | 1.05 ± 0.026 |
| AGGGACTTGG | 1 ± 0.047 |
| AGGGACTTGT | 1 ± 0.03 |
| AGGGAGAACG | 0.961 ± 0.047 |
| AGGGAGAAGT | 0.9853 ± 0.002 |
| AGGGAGGAGG | 0.971 ± 0.024 |
| AGGGAGGCCG | 0.98 ± 0.11 |
| AGGGAGGGAT | 1.01 ± 0.027 |
| AGGGAGGGTT | 1 ± 0.039 |
| AGGGAGTGCT | 1.02 ± 0.013 |
| AGGGAGTTAA | 0.973 ± 0.054 |
| AGGGAGTTCG | 0.977 ± 0.03 |
| AGGGATGTAA | 0.992 ± 0.012 |
| AGGGATTCCG | 1 ± 0.032 |
| AGGGATTGAT | 1.01 ± 0.059 |
| AGGGATTGC | 0.973 ± 0.027 |
| AGGGATTTAA | 0.988 ± 0.022 |
| AGGGATTTGG | 0.987 ± 0.014 |
| AGGGCAACCG | 1.04 ± 0.028 |

| Sequence | switch fluorescence ratio |
| --- | --- |
| AGGGCAAGGA | 1.11 ± 0.16 |
| AGGGCAGAGA | 1.02 ± 0.046 |
| AGGGCATTCG | 0.979 ± 0.026 |
| AGGGCATTGA | 1.01 ± 0.022 |
| AGGGCCCCGG | 1.03 ± 0.023 |
| AGGGCCCCTG | 0.9941 ± 0.0044 |
| AGGGCGACG | 1.05 ± 0.079 |
| AGGGCGACGC | 0.912 ± 0.025 |
| AGGGCGGGGT | 1.02 ± 0.033 |
| AGGGCGTTGT | 0.969 ± 0.035 |
| AGGGCTACAG | 1.013 ± 0.0054 |
| AGGGCTGTTC | 1.063 ± 0.0045 |
| AGGGCTTTTG | 1 ± 0.063 |
| AGGGGAAAAT | 0.996 ± 0.028 |
| AGGGGAAACA | 1.01 ± 0.031 |
| AGGGGAAAGA | 1.02 ± 0.04 |
| AGGGGAAGAA | 1 ± 0.019 |
| AGGGGAATTG | 0.955 ± 0.021 |
| AGGGGACGGG | 1.05 ± 0.037 |
| AGGGGAGAGT | 1 ± 0.014 |
| AGGGGAGCGT | 1.015 ± 0.0064 |
| AGGGGAGGCT | 0.997 ± 0.045 |
| AGGGGAGGGT | 1 ± 0.015 |

| Sequence | switch fluorescence ratio |
| --- | --- |
| AGGGGATAAG | 0.992 ± 0.029 |
| AGGGGATCAT | 0.981 ± 0.029 |
| AGGGGATTAT | 0.998 ± 0.038 |
| AGGGGCACAA | 1.01 ± 0.024 |
| AGGGGCAGGG | 0.932 ± 0.081 |
| AGGGGCAGTA | 0.993 ± 0.032 |
| AGGGGCGTAC | 1.07 ± 0.022 |
| AGGGGCTATT | 1.01 ± 0.014 |
| AGGGGGACAC | 1 ± 0.028 |
| AGGGGGAGTT | 0.979 ± 0.025 |
| AGGGGGATAG | 0.967 ± 0.052 |
| AGGGGGATCT | 1.03 ± 0.04 |
| AGGGGGATTT | 0.999 ± 0.052 |
| AGGGGGCAGG | 1.01 ± 0.017 |
| AGGGGGCCTG | 0.992 ± 0.01 |
| AGGGGGCGGC | 0.995 ± 0.031 |
| AGGGGGGACG | 0.915 ± 0.098 |
| AGGGGGGTCT | 1.01 ± 0.04 |
| AGGGGGGTGA | 1.017 ± 0.0015 |
| AGGGGGGTTA | 0.984 ± 0.04 |
| AGGGGGTAAG | 0.988 ± 0.028 |
| AGGGGGTAGG | 0.978 ± 0.022 |
| AGGGGGTCTG | 0.968 ± 0.017 |

| Sequence | switch fluorescence ratio |
| --- | --- |
| AGGGGGTCTT | 1.01 ± 0.016 |
| AGGGGGTGTA | 1.02 ± 0.014 |
| AGGGGGTTAT | 1.01 ± 0.03 |
| AGGGGGTTCC | 0.99 ± 0.033 |
| AGGGGTAAAA | 1 ± 0.014 |
| AGGGGTAATT | 1.02 ± 0.024 |
| AGGGGTACAG | 0.995 ± 0.04 |
| AGGGGTACTG | 1.01 ± 0.099 |
| AGGGGTATTG | 0.993 ± 0.017 |
| AGGGGTCAAT | 0.997 ± 0.0012 |
| AGGGGTCTCA | 0.9852 ± 0.0035 |
| AGGGGTCTCT | 0.985 ± 0.013 |
| AGGGGTCTGT | 1.015 ± 0.0013 |
| AGGGGTGGGA | 1.01 ± 0.02 |
| AGGGGTGGGG | 1 ± 0.029 |
| AGGGGTGGGT | 1.04 ± 0.054 |
| AGGGGTGTTA | 0.991 ± 0.019 |
| AGGGGTTAGG | 0.992 ± 0.021 |
| AGGGGTTGGA | 1.01 ± 0.036 |
| AGGGGTTTGT | 1.02 ± 0.017 |
| AGGGGTTTTT | 0.991 ± 0.011 |
| AGGGTAAACT | 1.27 ± 0.37 |
| AGGGTAAGGA | 1.09 ± 0.18 |

| Sequence | switch fluorescence ratio |
| --- | --- |
| AGGGTAATCG | 1.02 ± 0.011 |
| AGGGTAGGGC | 1.02 ± 0.025 |
| AGGGTAGTTG | 0.994 ± 0.019 |
| AGGGTATAGA | 0.987 ± 0.01 |
| AGGGTATGGG | 1.03 ± 0.058 |
| AGGGTATGGT | 1.01 ± 0.023 |
| AGGGTATTAT | 0.987 ± 0.019 |
| AGGGTCAAGG | 0.971 ± 0.046 |
| AGGGTCCCGC | 0.9929 ± 0.0024 |
| AGGGTCGCTA | 1 ± 0.014 |
| AGGGTCTTTT | 1.03 ± 0.053 |
| AGGGTGAAAG | 0.992 ± 0.023 |
| AGGGTGAATT | 0.9848 ± 0.0075 |
| AGGGTGACAG | 0.9566 ± 0.0056 |
| AGGGTGCGGG | 1.01 ± 0.018 |
| AGGGTGCTGT | 1.02 ± 0.016 |
| AGGGTGGCTT | 1.02 ± 0.088 |
| AGGGTGTTAG | 1 ± 0.013 |
| AGGGTGTTGG | 1 ± 0.017 |
| AGGGTTAGGC | 0.933 ± 0.02 |
| AGGGTTATAG | 0.982 ± 0.025 |
| AGGGTTATGG | 0.996 ± 0.016 |
| AGGGTTATTC | 1 ± 0.013 |

| Sequence | switch fluorescence ratio |
| --- | --- |
| AGGGTTCGGA | 1.015 ± 0.0029 |
| AGGGTTGTGT | 1.02 ± 0.029 |
| AGGGTTTACG | 1.05 ± 0.045 |
| AGGGTTTGCG | 1.04 ± 0.042 |
| AGGGTTTTCT | 1 ± 0.012 |
| AGGGTTTTTT | 1.02 ± 0.039 |
| AGGTAAATGG | 1.02 ± 0.026 |
| AGGTACAGAC | 1.12 ± 0.024 |
| AGGTACTCGA | 1.05 ± 0.02 |
| AGGTAGATAG | 0.948 ± 0.0068 |
| AGGTAGGAAG | 0.999 ± 0.034 |
| AGGTAGGATT | 1.01 ± 0.05 |
| AGGTAGGGTA | 0.992 ± 0.031 |
| AGGTAGGTGT | 1.04 ± 0.023 |
| AGGTAGTTC | 0.96 ± 0.1 |
| AGGTATGGAG | 0.981 ± 0.065 |
| AGGTATTATC | 0.968 ± 0.014 |
| AGGTATTGCG | 0.994 ± 0.044 |
| AGGTCAGGTT | 1.0131 ± 0.0003 |
| AGGTCAGTTT | 0.989 ± 0.017 |
| AGGTCCGCTT | 1.32 ± 0.039 |
| AGGTCCGGGT | 0.9981 ± 0.0065 |
| AGGTCGAGGG | 0.997 ± 0.026 |

| Sequence | switch fluorescence ratio |
| --- | --- |
| AGGTCGGGAT | 1 ± 0.045 |
| AGGTCTAAGG | 1 ± 0.022 |
| AGGTCTAGC | 0.995 ± 0.017 |
| AGGTCTTATT | 1.08 ± 0.094 |
| AGGTCTTCCG | 1 ± 0.011 |
| AGGTCTTGGG | 0.972 ± 0.027 |
| AGGTGATTAG | 0.986 ± 0.044 |
| AGGTGCATAT | 1.045 ± 0.0041 |
| AGGTGCTAAT | 0.968 ± 0.011 |
| AGGTGGGGCT | 0.9811 ± 0.0089 |
| AGGTGGGGGC | 1.003 ± 0.0095 |
| AGGTGGGTCT | 0.991 ± 0.011 |
| AGGTGGGTTT | 0.988 ± 0.044 |
| AGGTGTGATA | 1.1 ± 0.051 |
| AGGTGTGGCT | 1 ± 0.048 |
| AGGTGTGTCT | 1.019 ± 0.0093 |
| AGGTGTTATT | 1.005 ± 0.0074 |
| AGGTGTTTTG | 1.02 ± 0.0087 |
| AGGTTAAAAT | 1.03 ± 0.024 |
